One molecule from patent US20160377619A1 (MEDICINAL BIOCONVERGENCE RESEARCH CENTER, published 2016) can be followed below.

In test [1] the target is T1, lysyl-tRNA synthetase (KRS), recombinant (human, UniProt Q15046 1-597, limits assumed).
T1 construct: the construct is not described; also called KRS antigen; recombinant KRS standard material
Description: SPR (ProteOn XPR36), KRS amine-coupled to GLC chip, purified scFv injected at 500-30 nM, 25 C. As for the experimental part:
The binding affinity of the antibody of the present invention to KRS antigen was measured using the ProteOnTMXPR36 SPR (surface plasmon resonance) biosensor (Bio-Rad).
Specifically, approximately 10 μg/ml KRS antigen was immobilized at about 2,000-4,000 response units to GLC chip (Bio-Rad 6×6 sensor chip, Compact capacity amine coupling for protein-protein interactions) according to the manufacturer's manual, and then 30 μl of the purified scFv antibody of the present invention, which was diluted with PBS to various concentrations (500-30 nM), was injected to the chip at a rate of 50 μl/min at 25° C. to quantify the interaction with the antigen. The surface of the chip was regenerated with 0.85% phosphoric acid. The association rate and dissociation rate were calculated using the ProteOn Manager software, and the equilibrium dissociation constant (KD) was calculated as a ratio of dissociation rate/association rate.

The target in test [2] is T2, histidyl-tRNA synthetase (HRS), recombinant (UniProt P12081 1-509, limits assumed).
T2 sequence (looked up): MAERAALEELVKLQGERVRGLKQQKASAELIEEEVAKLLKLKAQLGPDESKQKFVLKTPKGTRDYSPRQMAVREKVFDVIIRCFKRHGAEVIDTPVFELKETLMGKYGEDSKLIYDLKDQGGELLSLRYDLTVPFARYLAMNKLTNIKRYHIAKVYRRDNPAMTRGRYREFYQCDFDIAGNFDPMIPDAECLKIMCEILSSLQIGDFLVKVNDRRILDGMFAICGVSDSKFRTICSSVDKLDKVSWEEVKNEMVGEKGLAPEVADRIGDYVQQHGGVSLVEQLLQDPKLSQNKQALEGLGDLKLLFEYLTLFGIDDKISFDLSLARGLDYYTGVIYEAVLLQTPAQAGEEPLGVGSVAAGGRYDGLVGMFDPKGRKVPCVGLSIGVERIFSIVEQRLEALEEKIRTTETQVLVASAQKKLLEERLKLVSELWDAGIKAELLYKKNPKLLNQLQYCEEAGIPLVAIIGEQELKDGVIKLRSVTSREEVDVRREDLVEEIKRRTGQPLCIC
In words: Luminex multiplex bead assay, antigen coupled to beads, anti-HA-biotin and SA-PE detection. Here is the method:
(§1) Then, 50 mg/ml S—NHS (N-hydroxysulfosuccinimide) and 50 mg/ml EDAC (1-ethy-3-[3-dimethylaminopropyl]carbodiimide) were added, followed by activation at room temperature for 20 minutes. The activated beads were washed with PBS, and then 10 μg of respective recombinant ARS antigens, that is, WRS, HRS, NRS, KRS, SRS, YRS, GRS, and AIMP1(p43), which were purified at purity of 90% or higher, were added, followed by reaction at room temperature for 2 hours. The beads linked to the respective ARS antigens were washed. two times with PBS, and then a blocking buffer was added to perform a reaction at room temperature for 30 minutes, thereby blocking unbound residues. Then, the resultant beads were washed two times with PBS, and again dispersed in 100 μl of PBS, and kept in tubes in which the light was blocked. The number of beads bound was measured and recorded by hemocytometer.
(§2) The antibody of the present invention extracted from the periplasm was first diluted with a specimen diluent (PBST+2% BSA) to 1:400. Then, the diluted antibody was diluted 2-fold serially with a specimen diluent, and dispensed in 96 well filter plate at 50 μl for each well. Only the specimen diluent was added in the blank well without the antibody. The ARS-bound beads were put in bead mix tubes to 2000 beads per well, respectively, and the specimen diluent was put with a volume such that 50 μl of the specimen diluent could be put per well. The bead mix solution was well mixed and dispensed in each well, followed by reaction in dark room for 1 hour. After the reaction was ended, the resultant solution was washed three times with PBS (200 μl/well) using a vacuum manifold, 50 μl Anti-(HA)-biotin secondary antibody was added, followed by further reaction in dark room for 1 hour. The beads binding to the secondary antibody were washed three times with PBS, and then, for fluorescent labeling, SA-PE (Streptavidin-Phycoerythrin) was added to 2 μg/ml, followed by reaction in dark room for 30 minutes, washing three times with PBS, and again dispersion in 100 μl of PBS. The fluorescent intensity of the fluorescence-labeled beads was measured using Bio-Plex (Luminex) 200 equipment and Bio-Plex manager program, and the measurement values were analyzed to investigate the binding of the antibody to each ARS.

The target of test [3] is T3, glycyl-tRNA synthetase (GRS), recombinant (UniProt P41250 55-739, limits assumed).
T3 sequence (looked up): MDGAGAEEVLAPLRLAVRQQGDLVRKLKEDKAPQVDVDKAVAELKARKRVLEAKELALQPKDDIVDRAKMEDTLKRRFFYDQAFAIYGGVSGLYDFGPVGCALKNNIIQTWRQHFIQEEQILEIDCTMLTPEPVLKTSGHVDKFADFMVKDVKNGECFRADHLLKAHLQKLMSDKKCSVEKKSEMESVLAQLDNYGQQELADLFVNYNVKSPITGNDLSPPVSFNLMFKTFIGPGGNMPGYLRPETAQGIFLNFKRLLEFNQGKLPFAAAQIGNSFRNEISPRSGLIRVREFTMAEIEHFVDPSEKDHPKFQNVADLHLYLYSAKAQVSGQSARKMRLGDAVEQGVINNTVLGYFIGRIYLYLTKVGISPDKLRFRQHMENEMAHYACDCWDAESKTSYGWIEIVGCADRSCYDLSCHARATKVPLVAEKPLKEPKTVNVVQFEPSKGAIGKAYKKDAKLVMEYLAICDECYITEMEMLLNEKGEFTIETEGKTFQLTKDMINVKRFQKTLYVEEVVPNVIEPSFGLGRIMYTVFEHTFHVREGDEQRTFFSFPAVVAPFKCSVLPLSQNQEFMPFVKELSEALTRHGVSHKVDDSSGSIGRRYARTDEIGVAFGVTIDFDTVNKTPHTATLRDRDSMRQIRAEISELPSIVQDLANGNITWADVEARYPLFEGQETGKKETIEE
The description is as above. Here is the method: as §1, §2

The target in test [4] is T4, aminoacyl-tRNA-synthetase-interacting multifunctional protein 1 (AIMP1), recombinant (UniProt Q12904 1-312, limits assumed).
T4 construct: also called AIMP1(p43); p43
T4 sequence (looked up): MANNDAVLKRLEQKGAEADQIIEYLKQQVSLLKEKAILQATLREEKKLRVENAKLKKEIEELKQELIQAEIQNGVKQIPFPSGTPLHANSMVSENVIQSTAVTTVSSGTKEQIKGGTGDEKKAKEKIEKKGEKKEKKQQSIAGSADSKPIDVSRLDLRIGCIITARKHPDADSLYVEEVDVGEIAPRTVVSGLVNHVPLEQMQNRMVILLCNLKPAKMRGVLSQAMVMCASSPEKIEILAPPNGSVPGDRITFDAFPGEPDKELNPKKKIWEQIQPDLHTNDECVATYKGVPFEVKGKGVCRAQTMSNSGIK
The test is described as above. Here is the method:
as §1, §2

The target of test [5] is T5, tyrosyl-tRNA synthetase (YRS), recombinant (UniProt P54577 1-528, limits assumed).
T5 sequence (looked up): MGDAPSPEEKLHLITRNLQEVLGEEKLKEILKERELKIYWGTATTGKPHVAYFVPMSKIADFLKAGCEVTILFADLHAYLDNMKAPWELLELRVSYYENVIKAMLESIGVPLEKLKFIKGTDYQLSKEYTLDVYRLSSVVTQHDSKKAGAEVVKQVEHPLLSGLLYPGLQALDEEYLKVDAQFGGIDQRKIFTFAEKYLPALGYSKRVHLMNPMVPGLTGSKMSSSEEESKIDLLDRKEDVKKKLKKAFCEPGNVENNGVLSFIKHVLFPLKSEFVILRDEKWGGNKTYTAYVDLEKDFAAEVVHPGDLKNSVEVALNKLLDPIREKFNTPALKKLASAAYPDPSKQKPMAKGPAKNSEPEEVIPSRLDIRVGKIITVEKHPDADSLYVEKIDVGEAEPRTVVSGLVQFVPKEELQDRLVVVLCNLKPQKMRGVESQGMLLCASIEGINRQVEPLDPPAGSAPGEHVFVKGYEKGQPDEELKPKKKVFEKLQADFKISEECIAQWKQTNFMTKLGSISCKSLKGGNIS
The description is as above. As for the experimental part:
as §1, §2

Test [6] has as its target T6, asparaginyl-tRNA synthetase (NRS), recombinant (UniProt O43776 1-548, limits assumed).
T6 sequence (looked up): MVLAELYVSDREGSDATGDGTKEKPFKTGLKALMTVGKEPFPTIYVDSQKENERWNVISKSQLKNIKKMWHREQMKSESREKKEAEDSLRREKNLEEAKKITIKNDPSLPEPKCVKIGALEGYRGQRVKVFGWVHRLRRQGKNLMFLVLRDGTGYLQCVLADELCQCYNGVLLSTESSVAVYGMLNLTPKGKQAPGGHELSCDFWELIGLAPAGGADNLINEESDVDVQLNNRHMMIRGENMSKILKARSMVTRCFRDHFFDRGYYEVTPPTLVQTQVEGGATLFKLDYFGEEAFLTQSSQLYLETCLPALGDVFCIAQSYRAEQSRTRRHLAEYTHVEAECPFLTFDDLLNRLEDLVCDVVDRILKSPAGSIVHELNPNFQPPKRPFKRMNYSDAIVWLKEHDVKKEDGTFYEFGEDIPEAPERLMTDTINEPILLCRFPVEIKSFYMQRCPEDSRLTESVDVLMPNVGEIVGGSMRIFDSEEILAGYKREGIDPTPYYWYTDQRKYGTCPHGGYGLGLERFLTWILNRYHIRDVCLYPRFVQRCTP
The description is as above. Here is the method: as §1, §2

Test [7] addresses T7, tryptophanyl-tRNA synthetase (WRS), recombinant (UniProt P23381 1-471, limits assumed).
T7 sequence (looked up): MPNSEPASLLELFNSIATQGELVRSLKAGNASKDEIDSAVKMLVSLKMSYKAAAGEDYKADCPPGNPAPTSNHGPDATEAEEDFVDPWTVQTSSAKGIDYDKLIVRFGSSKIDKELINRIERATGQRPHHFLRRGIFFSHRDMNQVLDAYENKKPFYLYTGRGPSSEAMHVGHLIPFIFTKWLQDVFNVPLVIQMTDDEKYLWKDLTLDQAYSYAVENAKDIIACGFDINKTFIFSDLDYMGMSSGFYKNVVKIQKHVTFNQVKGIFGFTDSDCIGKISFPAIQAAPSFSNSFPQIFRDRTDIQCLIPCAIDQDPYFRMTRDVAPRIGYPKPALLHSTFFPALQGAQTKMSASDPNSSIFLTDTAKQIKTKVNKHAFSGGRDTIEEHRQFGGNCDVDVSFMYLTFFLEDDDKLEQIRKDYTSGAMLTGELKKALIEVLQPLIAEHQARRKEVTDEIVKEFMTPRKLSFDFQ
The test is described as above. As for the experimental part:
as §1, §2

In test [8] the target is seryl-tRNA synthetase (SRS), recombinant (UniProt P49591 1-514, limits assumed). Described as above. As for the experimental part: as §1, §2
Chain of seryl-tRNA synthetase (SRS), recombinant (P49591 whole entry): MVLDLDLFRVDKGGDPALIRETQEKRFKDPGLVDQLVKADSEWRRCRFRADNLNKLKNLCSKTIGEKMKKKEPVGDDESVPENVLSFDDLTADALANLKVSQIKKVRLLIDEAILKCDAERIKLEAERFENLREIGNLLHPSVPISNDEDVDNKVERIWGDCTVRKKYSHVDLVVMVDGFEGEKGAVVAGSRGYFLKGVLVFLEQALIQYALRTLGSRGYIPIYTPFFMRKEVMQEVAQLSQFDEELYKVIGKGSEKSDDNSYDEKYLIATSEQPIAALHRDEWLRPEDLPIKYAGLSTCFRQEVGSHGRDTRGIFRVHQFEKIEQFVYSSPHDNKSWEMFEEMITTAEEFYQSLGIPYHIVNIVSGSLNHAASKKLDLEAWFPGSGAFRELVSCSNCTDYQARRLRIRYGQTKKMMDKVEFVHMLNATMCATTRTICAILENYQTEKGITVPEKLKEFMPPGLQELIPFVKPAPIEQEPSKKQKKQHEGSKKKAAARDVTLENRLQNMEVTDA

T1 sequence (Q15046 whole entry): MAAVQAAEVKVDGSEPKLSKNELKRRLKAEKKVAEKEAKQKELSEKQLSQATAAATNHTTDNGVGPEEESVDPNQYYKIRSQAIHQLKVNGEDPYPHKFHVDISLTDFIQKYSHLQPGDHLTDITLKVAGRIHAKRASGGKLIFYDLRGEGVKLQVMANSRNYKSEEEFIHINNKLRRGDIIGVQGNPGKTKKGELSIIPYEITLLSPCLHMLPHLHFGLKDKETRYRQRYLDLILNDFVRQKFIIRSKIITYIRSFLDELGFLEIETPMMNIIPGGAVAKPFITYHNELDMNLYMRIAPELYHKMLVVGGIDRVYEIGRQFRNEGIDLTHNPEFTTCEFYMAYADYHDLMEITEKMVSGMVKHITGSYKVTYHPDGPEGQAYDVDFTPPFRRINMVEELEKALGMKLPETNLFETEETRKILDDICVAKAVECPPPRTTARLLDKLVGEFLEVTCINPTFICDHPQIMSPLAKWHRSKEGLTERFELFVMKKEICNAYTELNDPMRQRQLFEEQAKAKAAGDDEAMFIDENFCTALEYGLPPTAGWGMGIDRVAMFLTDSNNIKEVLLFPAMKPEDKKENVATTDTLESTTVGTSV

B1: anti-KRS scFv Biocon-K1 (scFv)
scFv: EVQLLESGGGLVQPGGSLRLSCAASGFTFSNYAMSWVRQAPGKGLEWVSGISPSSGDTYYADSVKGRFTISRDNSKNTLYLQMNSLRAEDTAVYYCAKGVWWYHPLLFDYWGQGTLVTVSSGGGGSGGGGSGGGGSQSVLTQPPSASGTPGQRVTISCSGSSSNIGNNTVSWYQQLPGTAPKLLIYANSKRPSGVPDRFSGSKSGTSASLAISGLRSEDEADYYCGAWDSSLSGYVFGGGTKLTVL
notes: Single clone from a human VH3-23/VL1g phage scFv library, expressed in the E. coli periplasm; Purified scFv was used in SPR and ELISA, periplasmic extract in western blot and Luminex assay; also called antibody of the present invention; anti-KRS scFv antibody; not shown: His and HA tags of the pComb3X vector are implied by Ni-NTA purification and anti-HA detection
Take B1: in test [1], the Kd worked out at 100 nM. In addition, the binding result in test [2], in test [3], in test [4], in test [5], in test [6] and in test [7] was “no binding” throughout. Also, the binding result in test [8] is given as “no binding”.

One may read the Kd as the constant that tells how readily two partners part at equilibrium.
